Experimental data reported in patent publication US6027911.

What was measured:
[1] = target: Met-Asp-human growth hormone (human) (UniProt P01241)
[2] = target: Met-Arg-Human Proinsulin Analog (B28 Lys, B29 Pro) (human) (UniProt P01308)

human growth hormone (hGH) conversion yield (reverse phase chromatography) [1]: 37%
extent of conversion of MR-KPB-hPI to KPB-hPI (reverse phase HPLC) [2]: 98%
Substance: bovine dipeptidylaminopeptidase 1 (enzyme)
